Results reported in PMC4749968, “Nanocaged enzymes with enhanced catalytic activity and increased stability against protease digestion” (Nature Communications, 2016).

How the values were obtained:
[1] = test system: O=c1ccc2nc3ccc(O[C@@H]4O[C@H](CO)[C@H](O)[C@H](O)[C@H]4O)cc3oc-2c1; test: purified protein; details: free enzyme; kcat not calibrated; conditions in supplement
MDH = test system: T1, MDH; details: read-out: Free enzymes / Km; free enzyme; 1x TBS with 1 mM MgCl2, pH 7.5 (most assays; details in supplement)
T1 construct: gene MDH2

LDH = test system: T2, LDH; details: read-out: Free enzymes / Km; free enzyme; 1x TBS with 1 mM MgCl2, pH 7.5 (most assays; details in supplement)
T2 construct: gene LDHA

[2] = substrate: CCn1c(=NN=c2sc3cc(S(=O)(=O)O)ccc3n2CC)sc2cc(S(=O)(=O)O)ccc21; test: Michaelis-Menten kinetics, plate reader absorbance; format: biochemical, Armoracia rusticana; details: free enzyme, 1x TBS with 1 mM MgCl2, pH 7.5 (most assays; details in supplement)
Source text: Michaelis-Menten kinetics, plate reader absorbance on HRP

β-Gal (Escherichia coli K-12)
Km [1]: 58.7 ± 16.0 µM | kcat [1]: 8.5 ± 0.6 s⁻¹

NC(=O)C1=CN([C@@H]2O[C@H](COP(=O)(O)OP(=O)(O)OC[C@H]3O[C@@H](n4cnc5c(N)ncnc54)[C@H](O)[C@@H]3O)[C@@H](O)[C@H]2O)C=CC1 [NADH]
Km (MDH): 180 ± 50 µM | Km (LDH): 7.2 ± 1.3 µM

B1: HRP (Armoracia rusticana) (protein)
chain: QLTPTFYDNSCPNVSNIVRDTIVNELRSDPRIAASILRLHFHDCFVNGCDASILLDNTTSFRTEKDAFGNANSARGFPVIDRMKAAVESACPRTVSCADLLTIAAQQSVTLAGGPSWRVPLGRRDSLQAFLDLANANLPAPFFTLPQLKDSFRNVGLNRSSDLVALSGGHTFGKNQCRFIMDRLYNFSNTGLPDPTLNTTYLQTLRGLCPLNGNLSALVDFDLRTPTIFDNKYYVNLEEQKGLIQSDQELFSSPNATDTIPLVRSFANSTQTFFNAFVEAMDRMGNITPLTGTQGQIRLNCRVVNSNS
notes: 44 kDa
Km [2]: 2,600±400 μM | kcat [2]: 59 ± 5 s⁻¹
